Test results taken from paper doi:10.1101/2023.11.14.566657 (bioRxiv, 2023).

Experiments:
[1] = molecular target: the molecule itself; experiment: mass photometry
[2] = molecular target: T1, RAD52 wild type;SMARCAL1 (human;human?, UniProt P43351;Q9NZC9 1-418;1-954, |); experiment: mass photometry
T1 sequence 1: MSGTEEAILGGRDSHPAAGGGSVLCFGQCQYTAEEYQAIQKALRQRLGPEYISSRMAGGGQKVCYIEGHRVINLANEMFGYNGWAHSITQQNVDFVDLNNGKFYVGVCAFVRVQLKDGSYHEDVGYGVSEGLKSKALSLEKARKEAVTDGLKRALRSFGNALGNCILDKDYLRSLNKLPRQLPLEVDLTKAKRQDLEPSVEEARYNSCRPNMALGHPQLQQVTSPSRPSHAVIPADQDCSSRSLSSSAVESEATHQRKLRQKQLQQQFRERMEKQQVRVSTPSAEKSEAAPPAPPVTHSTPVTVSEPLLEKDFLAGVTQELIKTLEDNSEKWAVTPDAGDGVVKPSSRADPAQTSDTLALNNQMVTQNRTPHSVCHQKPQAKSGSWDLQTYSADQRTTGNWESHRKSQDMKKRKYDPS
T1 sequence 2: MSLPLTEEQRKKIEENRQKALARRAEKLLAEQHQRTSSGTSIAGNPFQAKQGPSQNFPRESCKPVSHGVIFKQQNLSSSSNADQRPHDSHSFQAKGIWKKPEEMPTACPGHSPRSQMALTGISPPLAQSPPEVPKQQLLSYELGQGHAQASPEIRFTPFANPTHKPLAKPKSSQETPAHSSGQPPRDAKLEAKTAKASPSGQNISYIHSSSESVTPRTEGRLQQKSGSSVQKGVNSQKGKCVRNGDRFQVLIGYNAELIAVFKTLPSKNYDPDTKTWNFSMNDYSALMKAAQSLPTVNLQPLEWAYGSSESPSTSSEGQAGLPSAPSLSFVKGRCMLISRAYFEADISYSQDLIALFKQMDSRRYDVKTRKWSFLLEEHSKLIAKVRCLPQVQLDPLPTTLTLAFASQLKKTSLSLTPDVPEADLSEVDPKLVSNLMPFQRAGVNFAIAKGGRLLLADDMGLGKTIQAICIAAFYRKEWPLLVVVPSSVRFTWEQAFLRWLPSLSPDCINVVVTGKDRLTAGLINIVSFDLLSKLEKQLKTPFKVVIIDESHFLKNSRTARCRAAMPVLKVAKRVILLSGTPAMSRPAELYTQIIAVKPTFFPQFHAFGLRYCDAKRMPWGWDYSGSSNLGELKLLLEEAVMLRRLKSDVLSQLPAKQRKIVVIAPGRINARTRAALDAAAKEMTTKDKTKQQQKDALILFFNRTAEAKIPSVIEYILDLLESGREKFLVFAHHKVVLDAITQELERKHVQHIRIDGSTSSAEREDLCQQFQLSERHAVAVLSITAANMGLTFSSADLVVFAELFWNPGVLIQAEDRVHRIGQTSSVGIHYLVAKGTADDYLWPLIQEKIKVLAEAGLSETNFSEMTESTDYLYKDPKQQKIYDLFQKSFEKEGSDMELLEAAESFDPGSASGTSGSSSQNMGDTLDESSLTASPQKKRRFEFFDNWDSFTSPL

[3] = molecular target: T2, SMARCAL1 (UniProt Q9NZC9 1-954); experiment: mass photometry
T2 sequence: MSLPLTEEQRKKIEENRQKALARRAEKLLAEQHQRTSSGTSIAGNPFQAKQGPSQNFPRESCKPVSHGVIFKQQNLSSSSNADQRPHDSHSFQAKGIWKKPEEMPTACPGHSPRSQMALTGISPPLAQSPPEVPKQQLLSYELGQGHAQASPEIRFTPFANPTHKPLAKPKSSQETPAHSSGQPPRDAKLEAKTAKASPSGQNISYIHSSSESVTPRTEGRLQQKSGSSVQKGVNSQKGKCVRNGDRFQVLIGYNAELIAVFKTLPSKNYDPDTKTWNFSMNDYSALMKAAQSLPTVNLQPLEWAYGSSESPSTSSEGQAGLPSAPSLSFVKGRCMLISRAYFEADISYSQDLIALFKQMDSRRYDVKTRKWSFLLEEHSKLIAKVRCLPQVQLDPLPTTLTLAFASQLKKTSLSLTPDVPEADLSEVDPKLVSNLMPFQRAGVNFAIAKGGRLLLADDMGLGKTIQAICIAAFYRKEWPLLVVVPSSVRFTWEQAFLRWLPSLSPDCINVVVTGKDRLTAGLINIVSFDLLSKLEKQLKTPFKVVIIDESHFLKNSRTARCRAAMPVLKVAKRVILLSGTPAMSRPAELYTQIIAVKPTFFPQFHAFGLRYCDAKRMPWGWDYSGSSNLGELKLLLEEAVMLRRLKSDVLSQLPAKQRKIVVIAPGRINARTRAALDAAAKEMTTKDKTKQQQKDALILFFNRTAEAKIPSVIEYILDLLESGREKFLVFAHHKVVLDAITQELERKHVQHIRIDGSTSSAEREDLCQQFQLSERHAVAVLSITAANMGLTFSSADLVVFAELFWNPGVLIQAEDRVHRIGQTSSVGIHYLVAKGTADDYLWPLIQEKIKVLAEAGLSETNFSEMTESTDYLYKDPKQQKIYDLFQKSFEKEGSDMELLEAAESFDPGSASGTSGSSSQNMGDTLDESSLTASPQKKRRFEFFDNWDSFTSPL

[4] = molecular target: T3, RAD52 wild type (human, UniProt P43351 1-418); experiment: mass photometry
T3 sequence: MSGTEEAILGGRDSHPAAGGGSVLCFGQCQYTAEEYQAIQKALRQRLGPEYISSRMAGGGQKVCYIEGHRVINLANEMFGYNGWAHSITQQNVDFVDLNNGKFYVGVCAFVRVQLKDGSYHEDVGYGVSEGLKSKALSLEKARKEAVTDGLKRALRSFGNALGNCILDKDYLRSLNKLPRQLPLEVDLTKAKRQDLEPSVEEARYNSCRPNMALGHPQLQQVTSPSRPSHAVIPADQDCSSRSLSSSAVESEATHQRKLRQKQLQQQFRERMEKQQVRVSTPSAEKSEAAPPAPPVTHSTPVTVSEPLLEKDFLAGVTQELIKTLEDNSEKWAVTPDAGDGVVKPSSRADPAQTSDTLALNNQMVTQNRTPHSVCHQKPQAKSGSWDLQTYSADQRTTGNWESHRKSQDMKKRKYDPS

[5] = molecular target: RAD52 wild type;RPA (human;human?, UniProt P43351;P27694;P15927;P35244 1-418;1-616;1-270;1-121, |); experiment: mass photometry
[6] = molecular target: RPA (UniProt P27694;P15927;P35244 1-616;1-270;1-121); experiment: mass photometry
[7] = molecular target: T4, RAD52 IBD (human, UniProt P43351 1-418, K152A;R153A); experiment: mass photometry
T4 sequence: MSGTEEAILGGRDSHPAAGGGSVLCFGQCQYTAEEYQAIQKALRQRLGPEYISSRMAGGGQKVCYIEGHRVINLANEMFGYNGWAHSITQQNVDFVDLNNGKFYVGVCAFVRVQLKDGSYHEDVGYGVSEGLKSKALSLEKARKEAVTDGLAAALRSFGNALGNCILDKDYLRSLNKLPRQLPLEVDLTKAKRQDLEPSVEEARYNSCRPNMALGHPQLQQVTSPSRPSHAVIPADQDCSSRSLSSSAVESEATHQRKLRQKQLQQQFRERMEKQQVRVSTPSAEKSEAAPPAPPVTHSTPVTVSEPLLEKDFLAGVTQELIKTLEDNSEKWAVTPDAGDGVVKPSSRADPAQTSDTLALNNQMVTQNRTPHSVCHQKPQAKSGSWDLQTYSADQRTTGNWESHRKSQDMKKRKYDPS

[8] = molecular target: T3, RAD52 wild type; experiment: P1 nuclease footprinting
[9] = molecular target: T3, RAD52 wild type; experiment: P1 nuclease footprinting; remark: listed apart in the source

Chain of RAD52 wild type;RPA (P27694 whole entry, chain 2 of 3): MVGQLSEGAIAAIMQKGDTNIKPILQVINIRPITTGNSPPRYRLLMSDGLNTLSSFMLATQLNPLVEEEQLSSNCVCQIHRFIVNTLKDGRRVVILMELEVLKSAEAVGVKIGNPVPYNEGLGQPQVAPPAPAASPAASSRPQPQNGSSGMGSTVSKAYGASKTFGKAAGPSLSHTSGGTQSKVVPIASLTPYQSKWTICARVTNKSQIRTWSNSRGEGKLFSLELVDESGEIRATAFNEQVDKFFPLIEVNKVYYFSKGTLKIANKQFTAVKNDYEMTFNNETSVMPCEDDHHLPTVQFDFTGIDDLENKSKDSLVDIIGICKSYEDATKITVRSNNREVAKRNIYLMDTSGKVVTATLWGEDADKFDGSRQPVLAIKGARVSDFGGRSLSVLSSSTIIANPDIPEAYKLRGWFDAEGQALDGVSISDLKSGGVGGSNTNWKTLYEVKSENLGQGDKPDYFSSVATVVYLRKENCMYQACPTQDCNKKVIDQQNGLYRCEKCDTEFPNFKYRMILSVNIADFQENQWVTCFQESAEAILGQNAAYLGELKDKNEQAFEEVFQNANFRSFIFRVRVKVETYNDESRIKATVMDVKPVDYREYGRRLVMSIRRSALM
Chain of RAD52 wild type;RPA (P15927 whole entry, chain 3 of 3): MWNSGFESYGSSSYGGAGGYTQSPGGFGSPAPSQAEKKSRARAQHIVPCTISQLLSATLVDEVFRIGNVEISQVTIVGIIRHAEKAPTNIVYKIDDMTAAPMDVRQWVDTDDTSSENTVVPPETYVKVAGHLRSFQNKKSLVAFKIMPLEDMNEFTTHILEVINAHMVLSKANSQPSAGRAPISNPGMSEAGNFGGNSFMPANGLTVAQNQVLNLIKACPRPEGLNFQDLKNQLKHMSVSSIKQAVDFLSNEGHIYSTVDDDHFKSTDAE
Chain of RAD52 wild type;RPA (P35244 whole entry, chain 4 of 3): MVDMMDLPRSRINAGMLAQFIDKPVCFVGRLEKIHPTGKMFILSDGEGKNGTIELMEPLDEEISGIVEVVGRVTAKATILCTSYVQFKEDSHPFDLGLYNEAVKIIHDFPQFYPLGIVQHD
Chain of RPA (P27694 whole entry, chain 1 of 3): as the sequence (P27694 whole entry, chain 2 of 3) above
Chain of RPA (P15927 whole entry, chain 2 of 3): as the sequence (P15927 whole entry, chain 3 of 3) above
Chain of RPA (P35244 whole entry, chain 3 of 3): as the sequence (P35244 whole entry, chain 4 of 3) above

B1: 6xHis-tagged human RAD52 protein (wild type) (natural protein)
chain: MSGTEEAILGGRDSHPAAGGGSVLCFGQCQYTAEEYQAIQKALRQRLGPEYISSRMAGGGQKVCYIEGHRVINLANEMFGYNGWAHSITQQNVDFVDLNNGKFYVGVCAFVRVQLKDGSYHEDVGYGVSEGLKSKALSLEKARKEAVTDGLKRALRSFGNALGNCILDKDYLRSLNKLPRQLPLEVDLTKAKRQDLEPSVEEARYNSCRPNMALGHPQLQQVTSPSRPSHAVIPADQDCSSRSLSSSAVESEATHQRKLRQKQLQQQFRERMEKQQVRVSTPSAEKSEAAPPAPPVTHSTPVTVSEPLLEKDFLAGVTQELIKTLEDNSEKWAVTPDAGDGVVKPSSRADPAQTSDTLALNNQMVTQNRTPHSVCHQKPQAKSGSWDLQTYSADQRTTGNWESHRKSQDMKKRKYDPS
[1]
  stoichiometry N: 10

B2: heterologous fork, 30 nt gap (#6/#2/#3/#4) (mixed)
DNA 1: GGTATATTCAACAGTTCAACGACGAATGTTTTTTTTTTTTTTTTTTTTTTTTTTTTTTCTTTTGAGGCAGGCATGGTAGC
DNA 2: GCTACCATGCCTGCCTCAAAAGTTCGTAATATGCTACACACTGGAGTACCGGCATTCGTCGTTGAACTGTTGAATATACC
DNA 3: GGTACTCCAGTGTGTAGCATATTACGAACTTTTGAGGCAGGCATGGTAGC
DNA 4: GCTACCATGCCTGCCTCAAAAG
[2]
  binding result: binds
[3]
  binding result: binds
[4]
  binding result: binds
[5]
  binding result: binds
[6]
  binding result: binds
[7]
  binding result: binds

B3: heterologous fork P1 assay (#5/#2/#3/#4) (mixed)
DNA 1: GGTATATTCAACAGTTCAACGACGAATGTTGTGCATAACGTCGCTCCGTAGCTATACGCTTTTGAGGCAGGCATGGTAGC
DNA 2: GCTACCATGCCTGCCTCAAAAGTTCGTAATATGCTACACACTGGAGTACCGGCATTCGTCGTTGAACTGTTGAATATACC
DNA 3: GGTACTCCAGTGTGTAGCATATTACGAACTTTTGAGGCAGGCATGGTAGC
DNA 4: GCTACCATGCCTGCCTCAAAAG
[8]
  binding result: binds

B4: homologous fork, 30 nt leading gap (#1/#2/#3/#4) (mixed)
DNA 1: GGTATATTCAACAGTTCAACGACGAATGTTGGTACTCCAGTGTGTAGCATATTACGAACTTTTGAGGCAGGCATGGTAGC
DNA 2: GCTACCATGCCTGCCTCAAAAGTTCGTAATATGCTACACACTGGAGTACCGGCATTCGTCGTTGAACTGTTGAATATACC
DNA 3: GGTACTCCAGTGTGTAGCATATTACGAACTTTTGAGGCAGGCATGGTAGC
DNA 4: GCTACCATGCCTGCCTCAAAAG
[9]
  binding result: binds
